Literature values as cited in publication PMC4426885.

Experiments:
[1] = biological target: vinculin D1 (Homo sapiens) (UniProt P18206)
vinculin (Homo sapiens) = vinculin (Homo sapiens) (UniProt P18206)
[2] = biological target: vinculin tail (Homo sapiens) (UniProt P18206)

Substance	Kd [1] [nM]	Kd (vinculin (Homo sapiens)) [nM]	Kd [2] [nM]
alpha-actinin peptide vinculin-binding site (from UniProt P12814)	2	2	–
vinculin head (from UniProt P18206)	–	–	< 1
